The results in this text go back to doi:10.1101/2021.02.08.430344.

The Kd is the free concentration of one partner at which half of the binding sites on the other are occupied at equilibrium, for simple one-to-one binding.

Data set [1] has as its target T1, SARS-CoV-2 nucleocapsid (N) protein (SARS-CoV-2, UniProt P0DTC9 2-419). In words: SV-AUC + ITC global fit; […], pH 7.4; ITC at 20 C; […] (137 mM NaCl). As to conditions: protein: commercial; tags: C-terminal His-tag; chain copies: 2; single strand.
For data set [2], the target named is T1, SARS-CoV-2 nucleocapsid (N) protein. In words: SV-AUC; […], pH 7.4; ITC at 20 C; […] (137 mM NaCl). The settings on record: protein: commercial; tags: C-terminal His-tag; chain copies: 2; single strand.

TTTTTT (ssDNA) [T6]: the Kd in data set [1] turned out to be 600 nM.
With TTTTTTTTTTTTTTTTTTTT (ssDNA) [T20], the binding result in data set [2] is listed as “binds”.
The molecule TTTTTTTTTT (ssDNA) [T10] returned a Kd in data set [2] below 100 nM.
On to GTGT (ssDNA) [(GT)2], for which the dissociation constant (Kd) in data set [2] was above 10000 nM.
